According to patent US20140248641A1, “CLONED GLUCAGON-LIKE PEPTIDE-2 RECEPTORS” (NPS PHARMACEUTICALS, INC., priority 1997, published 2014):
Positions count from the first letter of the chain named.

Assays:
Assay type in all cases: cell-based
[1] = target: T1, cloned human GLP-2 receptor (pC3/HuGL2R-2) (Homo sapiens, UniProt O95838); assay: cAMP functional assay in transfected COS-1 cells, human GLP-2 receptor; settings: FIG. 8
T1 construct: expressed in transfected cells; host or cells: COS-1
T1 sequence (O95838 1-553): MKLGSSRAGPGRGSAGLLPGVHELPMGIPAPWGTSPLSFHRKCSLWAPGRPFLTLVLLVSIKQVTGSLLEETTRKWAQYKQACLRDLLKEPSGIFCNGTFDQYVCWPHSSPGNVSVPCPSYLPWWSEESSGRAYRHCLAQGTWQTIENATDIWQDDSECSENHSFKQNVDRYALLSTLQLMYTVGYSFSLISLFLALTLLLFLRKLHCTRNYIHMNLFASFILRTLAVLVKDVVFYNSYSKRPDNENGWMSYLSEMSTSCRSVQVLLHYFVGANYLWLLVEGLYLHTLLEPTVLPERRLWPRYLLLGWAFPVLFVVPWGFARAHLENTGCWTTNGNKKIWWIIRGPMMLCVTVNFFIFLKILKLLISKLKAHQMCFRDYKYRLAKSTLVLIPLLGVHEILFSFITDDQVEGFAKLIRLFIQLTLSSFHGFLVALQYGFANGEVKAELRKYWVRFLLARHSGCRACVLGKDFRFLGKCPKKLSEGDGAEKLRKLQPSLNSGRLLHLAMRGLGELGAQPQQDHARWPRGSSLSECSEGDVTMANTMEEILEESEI
Procedure: (§1) Cos-1 cells were transfected as described in Analytical Biochemistry, 218:460-463(1994) with Rat clone 587 GLP-2 receptor, cloned human GLP-2 receptor (pC3/HuGL2R-2), or cloned residue 85 variant human GLP-2 receptor (pC3.1/HuGL2R-MH4), pcDNA3. Rat GLP-1 (7-36) amide was used as a control peptide. Solutions used were as follows:
(§2) RSC in RPMI 1640 (49 ml RPMI+1 ml FCS+5)0 ulchloroquine, 100 mM); DEAE/RSC Solution: 18.4 ml RSC+1.6 ml DEAE/Dextran (10 mg/ml).
(§3) The assay procedure entailed the following: […]
(§4) The functional assay was performed as follows: cAMP content for each extract was determined in duplicate by EIA (Enzyme ImmunoAssay) using the Amersham Biotrak cAMP EIA Kit (Amersham 225). […]

[2] = target: T2, cloned residue 85 variant human GLP-2 receptor (Homo sapiens, UniProt O95838, R85E); assay: cAMP functional assay in transfected COS-1 cells, residue 85 variant human GLP-2 receptor; settings: hybrid clone pc3.1/HuGL2R/MH6 with 2 bp GA replacement (Glu85 variant)
T2 construct: Myc-His (from vector pcDNA3.1(-)/Myc-His A) (C); expressed in transfected cells; host or cells: COS-1
T2 sequence (O95838 1-553 R85E): T1 sequence (O95838 1-553) with R85E
Procedure: Rat GLP-1 (7-36) amide was used as a control peptide. Solutions used were as follows:
as §2
The assay procedure entailed the following:
a) […] of either rat clone 587 GLP-2 receptor, or cloned human GLP-2 receptor, or cloned residue 85 variant human GLP-2 receptor was added (as plasmid pcDNA3) to a 50 ml tube containing six mls. of RSC and incubated at 37° C. b) Six ml of DEAE/RSC solution was added to each tube and incubated at 37° C. for 2 min. c) 1.5 ml of COS-1 cell suspension (5.5 millions cells) was added to each tube and incubated for 1 hr 45 min at 37° C. d) Following incubation, the sample was spun for 5 minutes at low speed, washed with DMEM/F12+10% FBS twice, and the pellet resuspended in 12.5 ml DMEM/F12+10% FBS media. e) One ml of cell suspension (step d) was added to each well of 6 well plates coated with poly-D-lysine (from Collaborative Biomedical), containing 3 ml of media (0.45 million cells/well). f) Plates were incubated at 37° C. for 3 days.
Media was prepared fresh on day of use. […]
as §4

[3] = system: HHT13 clones (human GLP-2R cDNA with frame-shift mutation); assay: cAMP functional assay in COS cells transfected with HHT13 clones; settings: COS cells transfected with pHHT13-1, pHHT13-2, pHHT13-3
Procedure: Transfections were carried out with each clone, using the rat GLP-2R, 587 clone as a positive control for cAMP response to GLP-2 peptide. Methods for transfection, cell culture and cAMP assay were identical to those described for the functional assay of rat, 587 clone.

[4] = target: T3, Rat clone 587 GLP-2 receptor (Rattus norvegicus, UniProt Q9Z0W0); assay: cAMP functional assay in transfected COS-1 cells, rat GLP-2 receptor
T3 construct: one which primed starting 4 bp upstream of the initiation codon and another which primed starting 8 bp downstream of the stop codon; expressed in transfected cells; host or cells: COS-1
T3 sequence (Q9Z0W0 1-550): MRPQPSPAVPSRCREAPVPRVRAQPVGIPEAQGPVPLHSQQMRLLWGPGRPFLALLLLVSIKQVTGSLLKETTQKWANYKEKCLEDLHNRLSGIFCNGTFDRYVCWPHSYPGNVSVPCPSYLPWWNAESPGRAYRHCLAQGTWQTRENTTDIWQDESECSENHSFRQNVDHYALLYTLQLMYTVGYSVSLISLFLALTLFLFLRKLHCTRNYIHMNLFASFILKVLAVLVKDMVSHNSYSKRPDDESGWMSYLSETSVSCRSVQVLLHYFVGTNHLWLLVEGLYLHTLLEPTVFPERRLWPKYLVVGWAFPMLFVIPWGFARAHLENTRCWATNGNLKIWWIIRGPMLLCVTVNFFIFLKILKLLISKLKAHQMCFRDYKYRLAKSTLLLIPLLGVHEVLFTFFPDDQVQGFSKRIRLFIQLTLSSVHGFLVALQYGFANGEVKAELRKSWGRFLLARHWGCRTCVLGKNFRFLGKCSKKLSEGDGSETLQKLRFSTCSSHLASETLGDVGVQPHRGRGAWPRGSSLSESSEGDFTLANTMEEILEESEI
Procedure: as §1, §2, §3
The functional assay was performed as follows: cAMP content for each extract was determined in duplicate by EIA (Enzyme ImmunoAssay) using the Amersham Biotrak cAMP EIA Kit (Amersham 225).

Substance: Glucagon-like peptide-2 [GLP-2]
- cAMP production in response to GLP-2 treatment ([1]; COS cells transfected with pc3/HuGL2R-2): cAMP production
- selectivity of receptor for GLP-2 over GLP-1 (cAMP) ([1]; cloned human receptor, peptides at 1, 3, 10 and 30 nM, 30 min): GLP-2 selectivity
- cAMP response to GLP-2 treatment [2]: cAMP response
- cAMP response to GLP-2 peptide [3]: none of the HHT13 clones gave any cAMP response
- cAMP response to GLP-2 peptide ([4]; COS cells transfected with rat GLP-2R 587 clone (positive control), cAMP EIA): good cAMP response
- selectivity of receptor for GLP-2 over GLP-1 (cAMP) ([4]; cloned rat receptor, peptides at 1, 3, 10 and 30 nM, 30 min, FIG. 3): GLP-2 selectivity
